Laboratory results from PMC8659191, “Expressed Soybean Leghemoglobin: Effect on Escherichia coli at Oxidative and Nitrosative Stress” (Molecules, 2021).

System: CC(C)(C)OO
Experiment: purified protein
Conditions: pH 7.4; 25.0 °C

“Lba (soybean leghemoglobin a, recombinant, ferric metLb) (Glycine max)” gave a Km of 5.4 ± 0.05 mM.
